This is an account of results in patent US20210261965A1.

pKd: −log10 of the molar value.

This experiment deals with Phosphatidylserine decarboxylase (PSD/PISD), purified. The experiment is described as follows: microscale thermophoresis (MST), fluorescently labeled purified SMAC, Monolith-NT115.
Sequence of Phosphatidylserine decarboxylase (PSD/PISD), purified (B1AKM7 whole entry): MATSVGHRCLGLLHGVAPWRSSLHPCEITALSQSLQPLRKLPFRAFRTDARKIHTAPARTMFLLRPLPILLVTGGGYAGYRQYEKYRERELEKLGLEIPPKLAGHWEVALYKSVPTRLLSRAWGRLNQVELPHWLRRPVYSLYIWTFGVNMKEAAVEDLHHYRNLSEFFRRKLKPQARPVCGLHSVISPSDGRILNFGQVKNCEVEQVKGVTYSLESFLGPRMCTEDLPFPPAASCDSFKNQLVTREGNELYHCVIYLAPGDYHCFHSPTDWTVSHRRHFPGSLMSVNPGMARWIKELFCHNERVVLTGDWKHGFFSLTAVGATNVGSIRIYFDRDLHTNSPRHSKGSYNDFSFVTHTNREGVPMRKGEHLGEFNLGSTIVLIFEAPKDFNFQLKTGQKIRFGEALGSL

Substance “purified SMAC/Diablo (second mitochondria-derived activator of caspase/direct inhibitor of apoptosis-binding protein with low pI) (from UniProt Q9NR28 56-239)” showed a pKd of 7.00.
